Assay results as given in publication PMC10333360, “Establishing mammalian GLUT kinetics and lipid composition influences in a reconstituted-liposome system” (Nature Communications, 2023).

Assays:
[1] = substrate: OC[C@H]1OC(O)[C@H](O)[C@@H](O)[C@@H]1O; assay: purified protein
[2] = substrate: OC[C@H]1OC(O)[C@H](O)[C@@H](O)[C@@H]1O; assay: zero-trans transport kinetics in proteoliposomes (KM); format: biochemical, Homo sapiens

Protein | Km [1] [µM] | Km [2] [µM]
GLUT1 (Homo sapiens) (protein) MEPSSKKLTGRLMLAVGGAVLGSLQFGYNTGVINAPQKVIEEFYNQTWVHRYGESILPTTLTTLWSLSVAIFSVGGMIGSFSVGLFVNRFGRRNSMLMMNLLAFVSAVLMGFSKLGKSFEMLILGRFIIGVYCGLTTGFVPMYVGEVSPTALRGALGTLHQLGIVVGILIAQVFGLDSIMGNKDLWPLLLSIIFIPALLQCIVLPFCPESPRFLLINRNEENRAKSVLKKLRGTADVTHDLQEMKEESRQMMREKKVTILELFRSPAYRQPILIAVVLQLSQQLSGINAVFYYSTSIFEKAGVQQPVYATIGSGIVNTAFTVVSLFVVERAGRRTLHLIGLAGMAGCAILMTIALALLEQLPWMSYLSIVAIFGFVAFFEVGPGPIPWFIVAELFSQGPRPAAIAVAGFSNWTSNFIVGMCFQYVEQLCGPYVFIIFTVLLVLFFIFTYFKVPETKGRTFDEIASGFRQGGASQSDKTPEELFHPLGADSQV | 2000 | 
hGLUT4 (Homo sapiens) (protein) MPSGFQQIGSEDGEPPQQRVTGTLVLAVFSAVLGSLQFGYNIGVINAPQKVIEQSYNETWLGRQGPEGPSSIPPGTLTTLWALSVAIFSVGGMISSFLIGIISQWLGRKRAMLVNNVLAVLGGSLMGLANAAASYEMLILGRFLIGAYSGLTSGLVPMYVGEIAPTHLRGALGTLNQLAIVIGILIAQVLGLESLLGTASLWPLLLGLTVLPALLQLVLLPFCPESPRYLYIIQNLEGPARKSLKRLTGWADVSGVLAELKDEKRKLERERPLSLLQLLGSRTHRQPLIIAVVLQLSQQLSGINAVFYYSTSIFETAGVGQPAYATIGAGVVNTVFTLVSVLLVERAGRRTLHLLGLAGMCGCAILMTVALLLLERVPAMSYVSIVAIFGFVAFFEIGPGPIPWFIVAELFSQGPRPAAMAVAGFSNWTSNFIIGMGFQYVAEAMGPYVFLLFAVLLLGFFIFTFLRVPETRGRTFDQISAAFHRTPSLLEQEVKPSTELEYLGPDEND |  | 8200
hGLUT3 (Homo sapiens) (protein) MGTQKVTPALIFAITVATIGSFQFGYNTGVINAPEKIIKEFINKTLTDKGNAPPSEVLLTSLWSLSVAIFSVGGMIGSFSVGLFVNRFGRRNSMLIVNLLAVTGGCFMGLCKVAKSVEMLILGRLVIGLFCGLCTGFVPMYIGEISPTALRGAFGTLNQLGIVVGILVAQIFGLEFILGSEELWPLLLGFTILPAILQSAALPFCPESPRFLLINRKEEENAKQILQRLWGTQDVSQDIQEMKDESARMSQEKQVTVLELFRVSSYRQPIIISIVLQLSQQLSGINAVFYYSTGIFKDAGVQEPIYATIGAGVVNTIFTVVSLFLVERAGRRTLHMIGLGGMAFCSTLMTVSLLLKDNYNGMSFVCIGAILVFVAFFEIGPGPIPWFIVAELFSQGPRPAAMAVAGCSNWTSNFLVGLLFPSAAHYLGAYVFIIFTGFLITFLAFTFFKVPETRGRTFEDITRAFEGQAHGADRSGKDGVMEMNSIEPAKETTTNV | 1400 | 
